Test results from US20150045540A1 (published 2015).

Assays:
[1] = biological target: T1, Placenta Growth Factor (PlGF), human (human, UniProt P49763 21-149); test: ELISA
T1 chain: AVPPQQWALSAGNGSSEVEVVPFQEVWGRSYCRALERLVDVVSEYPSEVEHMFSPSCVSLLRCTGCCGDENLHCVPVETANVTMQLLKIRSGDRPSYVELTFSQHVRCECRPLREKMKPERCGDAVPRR

[2] = biological target: Hepatocyte Growth Factor (HGF), human (human, UniProt P14210 32-728); test: ELISA
Sequence of Hepatocyte Growth Factor (HGF), human (P14210 32-728): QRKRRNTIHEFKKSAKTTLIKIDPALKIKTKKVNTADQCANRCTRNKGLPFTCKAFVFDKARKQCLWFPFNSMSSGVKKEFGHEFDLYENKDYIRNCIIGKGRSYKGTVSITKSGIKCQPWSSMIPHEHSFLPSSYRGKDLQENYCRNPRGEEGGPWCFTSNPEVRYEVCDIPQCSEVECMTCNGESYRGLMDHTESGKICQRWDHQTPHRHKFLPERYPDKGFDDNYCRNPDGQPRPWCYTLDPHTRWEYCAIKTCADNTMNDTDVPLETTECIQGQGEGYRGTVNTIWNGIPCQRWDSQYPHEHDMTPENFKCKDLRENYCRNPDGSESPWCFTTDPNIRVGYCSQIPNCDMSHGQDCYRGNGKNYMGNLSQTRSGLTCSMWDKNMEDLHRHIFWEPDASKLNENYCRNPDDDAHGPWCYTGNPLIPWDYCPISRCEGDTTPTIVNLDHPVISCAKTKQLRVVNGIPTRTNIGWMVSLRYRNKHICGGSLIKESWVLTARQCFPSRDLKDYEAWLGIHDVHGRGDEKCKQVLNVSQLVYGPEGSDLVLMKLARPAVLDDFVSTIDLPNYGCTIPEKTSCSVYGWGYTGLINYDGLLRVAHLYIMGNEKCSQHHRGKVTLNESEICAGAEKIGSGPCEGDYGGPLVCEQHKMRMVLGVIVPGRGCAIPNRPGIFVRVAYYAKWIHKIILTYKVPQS

Row | Binder | EC50 [1] [nM] | EC50 [2] [nM]
1 | HC 4/SLC 15 (antibody) chain 1: GQGTLVTVSSASTKQPVLHQPPAMSSALGTTIRLTCTLRNDHDIGVYSVYWYQQRPGHPPRFLLRYFSQSDKSQGPQVPPRFSGSKDVARNRGYLSISELQPEDEAMYYCAMGARSRCWPRGFQSKHNSVTHVFGSGTQLTVLSQPKATPSVTLFPPSSEELQANKATLVCLMNDFYPGILTVTWKADGTPITQGVEMTTPSKQSNNKYAASSYLSLTPEQWRSRRSYSCQVMHEGSTVEKTVAPAECS chain 2: MSWAPVLLMLFVYCTGCGPQPVLHQPPAMSSALGTTIRLTCTLRNDHDIGVYSVYWYQQRPGHPPRFLLRYFSQSDKSQGPQVPPRFSGSKDVARNRGYLSISVTHVFGSGTQLTVLSQPKATPSVTGGGGSQVQLVQ | 0.057 | ~0.041
2 | HC 2/SLC 15 (antibody) chain 1: GQGTLVTVSSASQPVLHQPPAMSSALGTTIRLTCTLRNDHDIGVYSVYWYQQRPGHPPRFLLRYFSQSDKSQGPQVPPRFSGSKDVARNRGYLSISELQPEDEAMYYCAMGARSRCWPRGFQSKHNSVTHVFGSGTQLTVLSQPKATPSVTLFPPSSEELQANKATLVCLMNDFYPGILTVTWKADGTPITQGVEMTTPSKQSNNKYAASSYLSLTPEQWRSRRSYSCQVMHEGSTVEKTVAPAECS chain 2: MSWAPVLLMLFVYCTGCGPQPVLHQPPAMSSALGTTIRLTCTLRNDHDIGVYSVYWYQQRPGHPPRFLLRYFSQSDKSQGPQVPPRFSGSKDVARNRGYLSISVTHVFGSGTQLTVLSQPKATPSVTGGGGSQVQLVQ | 0.053 | 0.041
3 | HC 4/SLC 10 (antibody) chain 1: GQGTLVTVSSASTKQPVLHQPPAMSSALGTTIRLTCTLRNDHDIGVYSVYWYQQRPGHPPRFLLRYFSQSDKSQGPQVPPRFSGSKDVARNRGYLSISELQPEDEAMYYCAMGARSRCWPRGFQSKHNSVTHVFGSGTQLTVLSQPKATPSVTLFPPSSEELQANKATLVCLMNDFYPGILTVTWKADGTPITQGVEMTTPSKQSNNKYAASSYLSLTPEQWRSRRSYSCQVMHEGSTVEKTVAPAECS chain 2: MSWAPVLLMLFVYCTGCGPQPVLHQPPAMSSALGTTIRLTCTLRNDHDIGVYSVYWYQQRPGHPPRFLLRYFSQSDKSQGPQVPPRFSGSKDVARNRGYLSISVTHVFGSGTQLTVLSQPKATPSVTQVQLVQ |  | ~0.041
4 | HC 4/SLC 9 (antibody) chain 1: GQGTLVTVSSASTKQPVLHQPPAMSSALGTTIRLTCTLRNDHDIGVYSVYWYQQRPGHPPRFLLRYFSQSDKSQGPQVPPRFSGSKDVARNRGYLSISELQPEDEAMYYCAMGARSRCWPRGFQSKHNSVTHVFGSGTQLTVLSQPKATPSVTLFPPSSEELQANKATLVCLMNDFYPGILTVTWKADGTPITQGVEMTTPSKQSNNKYAASSYLSLTPEQWRSRRSYSCQVMHEGSTVEKTVAPAECS chain 2: MSWAPVLLMLFVYCTGCGPQPVLHQPPAMSSALGTTIRLTCTLRNDHDIGVYSVYWYQQRPGHPPRFLLRYFSQSDKSQGPQVPPRFSGSKDVARNRGYLSISVTHVFGSGTQLTVLSQPKATPSVQVQLVQ | 0.101 | 0.045
5 | HC 6/SLC 15 (antibody) chain 1: GQGTLVTVSSASTKGPQPVLHQPPAMSSALGTTIRLTCTLRNDHDIGVYSVYWYQQRPGHPPRFLLRYFSQSDKSQGPQVPPRFSGSKDVARNRGYLSISELQPEDEAMYYCAMGARSRCWPRGFQSKHNSVTHVFGSGTQLTVLSQPKATPSVTLFPPSSEELQANKATLVCLMNDFYPGILTVTWKADGTPITQGVEMTTPSKQSNNKYAASSYLSLTPEQWRSRRSYSCQVMHEGSTVEKTVAPAECS chain 2: MSWAPVLLMLFVYCTGCGPQPVLHQPPAMSSALGTTIRLTCTLRNDHDIGVYSVYWYQQRPGHPPRFLLRYFSQSDKSQGPQVPPRFSGSKDVARNRGYLSISVTHVFGSGTQLTVLSQPKATPSVTGGGGSQVQLVQ | 0.046 | 0.05
6 | HC 9/SLC 6 (antibody) chain 1: GQGTLVTVSSASTKGPSVFQPVLHQPPAMSSALGTTIRLTCTLRNDHDIGVYSVYWYQQRPGHPPRFLLRYFSQSDKSQGPQVPPRFSGSKDVARNRGYLSISELQPEDEAMYYCAMGARSRCWPRGFQSKHNSVTHVFGSGTQLTVLSQPKATPSVTLFPPSSEELQANKATLVCLMNDFYPGILTVTWKADGTPITQGVEMTTPSKQSNNKYAASSYLSLTPEQWRSRRSYSCQVMHEGSTVEKTVAPAECS chain 2: MSWAPVLLMLFVYCTGCGPQPVLHQPPAMSSALGTTIRLTCTLRNDHDIGVYSVYWYQQRPGHPPRFLLRYFSQSDKSQGPQVPPRFSGSKDVARNRGYLSISVTHVFGSGTQLTVLSQPKATQVQLVQ | 0.096 | 0.059
7 | HC 3/SLC 10 (antibody) chain 1: GQGTLVTVSSASTQPVLHQPPAMSSALGTTIRLTCTLRNDHDIGVYSVYWYQQRPGHPPRFLLRYFSQSDKSQGPQVPPRFSGSKDVARNRGYLSISELQPEDEAMYYCAMGARSRCWPRGFQSKHNSVTHVFGSGTQLTVLSQPKATPSVTLFPPSSEELQANKATLVCLMNDFYPGILTVTWKADGTPITQGVEMTTPSKQSNNKYAASSYLSLTPEQWRSRRSYSCQVMHEGSTVEKTVAPAECS chain 2: MSWAPVLLMLFVYCTGCGPQPVLHQPPAMSSALGTTIRLTCTLRNDHDIGVYSVYWYQQRPGHPPRFLLRYFSQSDKSQGPQVPPRFSGSKDVARNRGYLSISVTHVFGSGTQLTVLSQPKATPSVTQVQLVQ |  | ~0.041
8 | HC 6/SLC 10 (antibody) chain 1: GQGTLVTVSSASTKGPQPVLHQPPAMSSALGTTIRLTCTLRNDHDIGVYSVYWYQQRPGHPPRFLLRYFSQSDKSQGPQVPPRFSGSKDVARNRGYLSISELQPEDEAMYYCAMGARSRCWPRGFQSKHNSVTHVFGSGTQLTVLSQPKATPSVTLFPPSSEELQANKATLVCLMNDFYPGILTVTWKADGTPITQGVEMTTPSKQSNNKYAASSYLSLTPEQWRSRRSYSCQVMHEGSTVEKTVAPAECS chain 2: MSWAPVLLMLFVYCTGCGPQPVLHQPPAMSSALGTTIRLTCTLRNDHDIGVYSVYWYQQRPGHPPRFLLRYFSQSDKSQGPQVPPRFSGSKDVARNRGYLSISVTHVFGSGTQLTVLSQPKATPSVTQVQLVQ |  | ~0.041
9 | HC 8/SLC 10 (antibody) chain 1: GQGTLVTVSSASTKGPSVQPVLHQPPAMSSALGTTIRLTCTLRNDHDIGVYSVYWYQQRPGHPPRFLLRYFSQSDKSQGPQVPPRFSGSKDVARNRGYLSISELQPEDEAMYYCAMGARSRCWPRGFQSKHNSVTHVFGSGTQLTVLSQPKATPSVTLFPPSSEELQANKATLVCLMNDFYPGILTVTWKADGTPITQGVEMTTPSKQSNNKYAASSYLSLTPEQWRSRRSYSCQVMHEGSTVEKTVAPAECS chain 2: MSWAPVLLMLFVYCTGCGPQPVLHQPPAMSSALGTTIRLTCTLRNDHDIGVYSVYWYQQRPGHPPRFLLRYFSQSDKSQGPQVPPRFSGSKDVARNRGYLSISVTHVFGSGTQLTVLSQPKATPSVTQVQLVQ |  | ~0.041
10 | HC 10/SLC 9 (antibody) chain 1: GQGTLVTVSSASTKGPSVFPQPVLHQPPAMSSALGTTIRLTCTLRNDHDIGVYSVYWYQQRPGHPPRFLLRYFSQSDKSQGPQVPPRFSGSKDVARNRGYLSISELQPEDEAMYYCAMGARSRCWPRGFQSKHNSVTHVFGSGTQLTVLSQPKATPSVTLFPPSSEELQANKATLVCLMNDFYPGILTVTWKADGTPITQGVEMTTPSKQSNNKYAASSYLSLTPEQWRSRRSYSCQVMHEGSTVEKTVAPAECS chain 2: MSWAPVLLMLFVYCTGCGPQPVLHQPPAMSSALGTTIRLTCTLRNDHDIGVYSVYWYQQRPGHPPRFLLRYFSQSDKSQGPQVPPRFSGSKDVARNRGYLSISVTHVFGSGTQLTVLSQPKATPSVQVQLVQ | 0.039 | 0.053
11 | HC 5/SLC 8 (antibody) chain 1: GQGTLVTVSSASTKGQPVLHQPPAMSSALGTTIRLTCTLRNDHDIGVYSVYWYQQRPGHPPRFLLRYFSQSDKSQGPQVPPRFSGSKDVARNRGYLSISELQPEDEAMYYCAMGARSRCWPRGFQSKHNSVTHVFGSGTQLTVLSQPKATPSVTLFPPSSEELQANKATLVCLMNDFYPGILTVTWKADGTPITQGVEMTTPSKQSNNKYAASSYLSLTPEQWRSRRSYSCQVMHEGSTVEKTVAPAECS chain 2: MSWAPVLLMLFVYCTGCGPQPVLHQPPAMSSALGTTIRLTCTLRNDHDIGVYSVYWYQQRPGHPPRFLLRYFSQSDKSQGPQVPPRFSGSKDVARNRGYLSISVTHVFGSGTQLTVLSQPKATPSQVQLVQ | 0.115 | 0.055
12 | HC 2/SLC 2 (antibody) chain 1: GQGTLVTVSSASQPVLHQPPAMSSALGTTIRLTCTLRNDHDIGVYSVYWYQQRPGHPPRFLLRYFSQSDKSQGPQVPPRFSGSKDVARNRGYLSISELQPEDEAMYYCAMGARSRCWPRGFQSKHNSVTHVFGSGTQLTVLSQPKATPSVTLFPPSSEELQANKATLVCLMNDFYPGILTVTWKADGTPITQGVEMTTPSKQSNNKYAASSYLSLTPEQWRSRRSYSCQVMHEGSTVEKTVAPAECS chain 2: MSWAPVLLMLFVYCTGCGPQPVLHQPPAMSSALGTTIRLTCTLRNDHDIGVYSVYWYQQRPGHPPRFLLRYFSQSDKSQGPQVPPRFSGSKDVARNRGYLSISVTHVFGSGTQLTVLSQQVQLVQ | 0.049 | 0.051
13 | HC 2/SLC 3 (antibody) chain 1: GQGTLVTVSSASQPVLHQPPAMSSALGTTIRLTCTLRNDHDIGVYSVYWYQQRPGHPPRFLLRYFSQSDKSQGPQVPPRFSGSKDVARNRGYLSISELQPEDEAMYYCAMGARSRCWPRGFQSKHNSVTHVFGSGTQLTVLSQPKATPSVTLFPPSSEELQANKATLVCLMNDFYPGILTVTWKADGTPITQGVEMTTPSKQSNNKYAASSYLSLTPEQWRSRRSYSCQVMHEGSTVEKTVAPAECS chain 2: MSWAPVLLMLFVYCTGCGPQPVLHQPPAMSSALGTTIRLTCTLRNDHDIGVYSVYWYQQRPGHPPRFLLRYFSQSDKSQGPQVPPRFSGSKDVARNRGYLSISVTHVFGSGTQLTVLSQPQVQLVQ | 0.046 | 0.058
14 | HC 10/SLC 2 (antibody) chain 1: GQGTLVTVSSASTKGPSVFPQPVLHQPPAMSSALGTTIRLTCTLRNDHDIGVYSVYWYQQRPGHPPRFLLRYFSQSDKSQGPQVPPRFSGSKDVARNRGYLSISELQPEDEAMYYCAMGARSRCWPRGFQSKHNSVTHVFGSGTQLTVLSQPKATPSVTLFPPSSEELQANKATLVCLMNDFYPGILTVTWKADGTPITQGVEMTTPSKQSNNKYAASSYLSLTPEQWRSRRSYSCQVMHEGSTVEKTVAPAECS chain 2: MSWAPVLLMLFVYCTGCGPQPVLHQPPAMSSALGTTIRLTCTLRNDHDIGVYSVYWYQQRPGHPPRFLLRYFSQSDKSQGPQVPPRFSGSKDVARNRGYLSISVTHVFGSGTQLTVLSQQVQLVQ | 0.166 | 0.063
